The values that follow come from US20020115843A1.

Test in all cases: cell-based or functional assay
For assay [1], the target named is dipeptidyl peptidase IV (DPPIV) (UniProt P27487).
Assay [2] concerns the target myc-His tagged DPRP-1 (expressed from pcDNA-MycHis-DPRP1) (human) (UniProt Q6V1X1).
In assay [3] the target is myc-His tagged DPRP-2 (expressed from pcDNA-MycHis-DPRP2) (human) (UniProt Q86TI2).
Chain of myc-His tagged DPRP-2 (expressed from pcDNA-MycHis-DPRP2) (human) (Q86TI2 whole entry): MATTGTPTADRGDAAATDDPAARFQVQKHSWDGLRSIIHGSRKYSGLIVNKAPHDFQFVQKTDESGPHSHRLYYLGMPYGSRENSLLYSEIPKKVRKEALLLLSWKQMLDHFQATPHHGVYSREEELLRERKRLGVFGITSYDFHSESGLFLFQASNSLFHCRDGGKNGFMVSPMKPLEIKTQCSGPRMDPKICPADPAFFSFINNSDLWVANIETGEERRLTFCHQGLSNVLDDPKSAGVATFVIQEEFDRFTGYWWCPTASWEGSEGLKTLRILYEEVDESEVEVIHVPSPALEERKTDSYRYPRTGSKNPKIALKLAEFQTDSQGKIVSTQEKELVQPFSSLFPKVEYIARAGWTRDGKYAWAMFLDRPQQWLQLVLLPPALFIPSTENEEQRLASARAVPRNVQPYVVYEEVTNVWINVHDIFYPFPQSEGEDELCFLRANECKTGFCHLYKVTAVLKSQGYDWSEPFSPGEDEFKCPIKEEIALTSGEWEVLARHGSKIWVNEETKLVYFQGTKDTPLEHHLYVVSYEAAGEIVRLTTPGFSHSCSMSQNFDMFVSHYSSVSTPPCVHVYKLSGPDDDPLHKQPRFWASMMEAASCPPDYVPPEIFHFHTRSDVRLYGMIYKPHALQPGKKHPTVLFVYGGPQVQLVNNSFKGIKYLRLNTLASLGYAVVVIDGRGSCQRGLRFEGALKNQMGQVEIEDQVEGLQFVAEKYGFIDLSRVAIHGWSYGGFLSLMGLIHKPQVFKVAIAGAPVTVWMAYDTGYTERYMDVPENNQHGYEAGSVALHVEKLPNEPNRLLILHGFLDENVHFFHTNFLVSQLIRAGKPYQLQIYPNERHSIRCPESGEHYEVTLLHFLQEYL

Chain of myc-His tagged DPRP-1 (expressed from pcDNA-MycHis-DPRP1) (human) (Q6V1X1 17-898): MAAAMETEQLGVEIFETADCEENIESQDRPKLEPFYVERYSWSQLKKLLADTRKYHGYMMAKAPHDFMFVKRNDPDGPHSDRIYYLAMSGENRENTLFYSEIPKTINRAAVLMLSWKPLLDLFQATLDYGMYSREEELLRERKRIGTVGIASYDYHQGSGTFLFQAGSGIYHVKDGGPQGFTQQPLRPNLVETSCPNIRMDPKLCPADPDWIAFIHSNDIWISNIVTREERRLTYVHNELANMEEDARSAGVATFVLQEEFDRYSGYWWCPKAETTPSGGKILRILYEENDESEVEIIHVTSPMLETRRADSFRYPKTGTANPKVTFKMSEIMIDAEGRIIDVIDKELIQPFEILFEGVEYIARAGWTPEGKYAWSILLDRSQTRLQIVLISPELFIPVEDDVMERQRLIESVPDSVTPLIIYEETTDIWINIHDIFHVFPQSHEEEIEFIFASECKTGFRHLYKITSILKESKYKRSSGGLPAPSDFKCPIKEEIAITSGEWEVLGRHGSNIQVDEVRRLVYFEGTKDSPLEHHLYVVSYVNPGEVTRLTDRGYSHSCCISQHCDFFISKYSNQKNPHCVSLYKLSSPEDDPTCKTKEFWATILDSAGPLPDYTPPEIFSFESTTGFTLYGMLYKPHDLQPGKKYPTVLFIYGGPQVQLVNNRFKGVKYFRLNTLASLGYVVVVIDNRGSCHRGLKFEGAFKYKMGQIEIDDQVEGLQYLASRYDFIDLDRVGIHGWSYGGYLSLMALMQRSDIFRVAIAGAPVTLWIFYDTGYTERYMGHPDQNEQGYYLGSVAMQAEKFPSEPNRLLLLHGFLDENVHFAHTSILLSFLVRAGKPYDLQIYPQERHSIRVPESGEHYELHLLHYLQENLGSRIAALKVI
Chain of dipeptidyl peptidase IV (DPPIV) (P27487 39-766 limits assumed): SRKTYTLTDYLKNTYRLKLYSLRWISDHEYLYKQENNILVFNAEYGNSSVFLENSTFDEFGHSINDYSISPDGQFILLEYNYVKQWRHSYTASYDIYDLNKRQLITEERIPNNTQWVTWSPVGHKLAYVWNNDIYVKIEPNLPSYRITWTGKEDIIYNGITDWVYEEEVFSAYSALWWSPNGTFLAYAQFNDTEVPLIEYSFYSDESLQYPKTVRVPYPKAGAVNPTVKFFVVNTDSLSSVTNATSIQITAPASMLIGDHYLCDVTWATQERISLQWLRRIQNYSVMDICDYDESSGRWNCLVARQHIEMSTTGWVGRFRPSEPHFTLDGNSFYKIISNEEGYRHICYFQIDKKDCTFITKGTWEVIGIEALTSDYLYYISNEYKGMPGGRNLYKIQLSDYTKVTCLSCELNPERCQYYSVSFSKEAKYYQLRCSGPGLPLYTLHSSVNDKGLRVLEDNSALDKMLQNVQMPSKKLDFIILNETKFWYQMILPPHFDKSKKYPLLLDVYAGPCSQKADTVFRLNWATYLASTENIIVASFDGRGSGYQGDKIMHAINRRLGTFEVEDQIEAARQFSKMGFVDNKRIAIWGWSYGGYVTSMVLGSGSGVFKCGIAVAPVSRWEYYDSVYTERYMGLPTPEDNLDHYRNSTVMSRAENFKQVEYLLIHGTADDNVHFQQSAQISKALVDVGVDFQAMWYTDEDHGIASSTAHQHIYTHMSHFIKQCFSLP

Consider Leupeptin (peptide), for which the Residual activity (% of control), Ala-Pro-AMC cleavage, inhibitor at 50 µg/ml was 90.7 % of control in assay [1], 91.1 % of control in assay [2] and 90.4 % of control in assay [3].

For Pepstatin (peptide), the values for the Residual activity (% of control), Ala-Pro-AMC cleavage, inhibitor at 2 µg/ml in assay [1], in assay [2] and in assay [3] were 93.5 % of control, 97.3 % of control and 95 % of control, respectively.
